Experiment: soluble on expression in E. coli; label from the status in PepcDB or PDB records
For “MAHHHHHHMVENEVYNRDMRIVRSRERLDGRPTLRSFFNKDGLLLKTYGWIVRNAVGLIVLIHGLNSHTRFSFLRHNVHVFNNRAILMDADNYYIYKNSWIEHFNKNGYSVFGIDLQSHGESEGWENLSLNVKEFDDLVYDVLEYIQKVQDDNARYMNYSSSSYSSSSSRSNSSSNSSSNSGSNSNSNSNSNSRGGESPRNDNSANRMIAPLPVYLIGQSMGGNVALRALQIVGKYRGLNRRLNIRGCVSLSGMIAVEALGLPSSYIYKSFFMPLSRFLSDFLPTLRLLCEMPYKRFQYIRDIGRFDTMRYRRGITCRFAYELLKAMDNLDHDMRFMPRDIPVLFIHSSKDKLCYPGGVVSFYNRLNIRNKELHMLNYMEHMLTMEPGNERVLSKIMNWLYNMSRPQRITA”, the “soluble on expression in E. coli” value was “not soluble”. In the case of “MAHHHHHHMVKGDCIRAAHLLIKFDGSRNCVSHRTGKSTADLTYDAALAELKQWAKRIADGEITFEDAARQRSDCGSYNSGGDLGFFGPGVMMKPFEDAARSLNVGEVSGVVRTESGLHIIKRLA”, the “soluble on expression in E. coli” value is reported as “soluble”. For “MAHHHHHHMVLIKAKNNEGKTVGEGKFSPFCFVLYGDIQYGMIRANHGWYEERKLLKEAITKTNKIKPSFVVAMGDLANKFPIDELQNEQYKDLKTDFEQLDKSIDLYVFCGNHDVGNEPTHETISNFEHFWGDSYYSYIYNNCGFIILNSAVFFNDTQVQDLKEKQFLWLDETLKKMVSKNVKHKFLFLHHALMYDHIEEDENIGLIYGDKFRNYSEKNKFHIKKETRMVIYDMLKKYKVSHVFCAHLHANREKNIDANIKQITISAVGMQAASDQSGLMIVQVAEEGVDYKYYPFEFVPSFVKV”, the “soluble on expression in E. coli” value was “not soluble”. In the case of “MAHHHHHHMVMSQRIAYVTGGMGGIGTSICQRLHKDGFRVVAGCGPNSPRRVKWLEDQKALGFDFYASEGNVGDWDSTKQAFDKVKAEVGEIDVLVNNAGITRDVVFRKMTREDWQAVIDTNLTSLFNVTKQVIDGMVERGWGRIINISSVNGQKGQFGQTNYSTAKAGIHGFTMSLAQEVATKGVTVNTVSPGYIGTDMVKAIRPDVLEKIVATIPVRRLGSPDEIGSIVAWLASEESGFSTGADFSLNGGLHMG”, the “soluble on expression in E. coli” value is reported as “soluble”. In the case of “MAHHHHHHMVSANKSTMPLSQGCAAAAGIPLEYFETRDHINHLISLGMPRVTPHTVPPKERVATLPVPPQQDHTELMLTISSGGSPQKSYFSTTESHLLTCGTLTPKTARKRPEIDSFDMEGAFAALVKRLESRVDEEDNKDMAS”, the “soluble on expression in E. coli” value is reported as “not soluble”. In the case of “MAHHHHHHMWHTTVMVPTQHWGAVGYFPAIVTRPSQLNFSGSYDPVAWSGPPSYPGQFAAGNRRQLGQQEQYRQPYSNYHNRPQPHRQMHAQPPYMAHRMTVNAVTYGFGDPTLGVYRTSADGWKYRGAYGGGRRPSPPFQAMVTRPLVSSNGRRRRGTHARANMAGGWGDLDTYDLYAFEAGENLDVDNMSYEELLELTERLGMVERGVQPARLNELRVVITPTHVKQQLESDRMVAGRNGLVKGGANIDQEEKEANEKMCEEDPIKCCICLDGVLVGQTATRMPCCRNFLHASCAAPWFV”, the “soluble on expression in E. coli” value is reported as “not soluble”. With “MAHHHHHHSLSQVILDLQLACENHAGLPDEAQFQRWLDGVIPQFQEEAEVTIRLVDEAESHDLNLTYRGKDKPTNVLSFPFEAPPGIEMPLLGDLIICRQVVEQEAQEQSKPLEAHWAHMVVHGSLHLLGYDHIDDDEAEEMESLETEIMLAMGYEDPYIAEKIAE” the “soluble on expression in E. coli” value was “soluble”. With “MAHHHHHHSLTTVGLELINVSSSWDEGIVELFEKIKRENKANGQLTGDDGLFFTNLYVTPVLKNINLRLEEGMMLAVAGSTGSGKSSLLMMILGELVPSEGKIRHSGRISYSPQTSWIMPGTIRDNILFGLTYDEFRYTSIIRACQLEEDLDLLPEKDKTAIAEGGVTLSGGQRARICLARAVYKDADLYLLDAPFTHLDIATEKEIFDKCVCKLIASKTRVVVTSKLEHLKRADRILLLHNGDCYFYGTFSELQAQRPDFSSLLLGLGSYDNISAERRSSILTETLRRVSVDETAGFRGEG” the “soluble on expression in E. coli” value was “soluble”. For “MAHHHHHHVGTGSNDDDDKSPDPTQDVREPPALKYGIVLDAGSSHTSMFVYKWPADKENDTGIVGQHSSCDVQGGGISSYANDPSKAGQSLVRCLEQALRDVPRDRHASTPLYLGATAGMRLLNLTSPEATARVLEAVTQTLTQYPFDFRGARILSGQDEGVFGWVTANYLLENFIKYGWVGRWIRPRKGTLGAMDLGGASTQITFETTSPSEDPGNEVHLRLYGQHYRVYTHSFLCYGRDQILLRLLASALQIHRFHPCWPKGYSTQVLLQEVYQSPCTMGQRPRAFNGSAIVSLSGTSNATLCRDLVSRLFNISSCPFSQCSFNGVFQPPVAGNFIAFSAFYYTVDFLTTVMGLPVGTLKQLEEATEITCNQTWTELQARVPGQKTRLADYCAVAMFIHQLLSRGYHFDERSFREVVFQKKAADTAVGWALGYMLNLTNLIPADLPGLRKGTHF”, the “soluble on expression in E. coli” value was “soluble”.

Reference: the DeepSol protein solubility set
